Test results taken from publication doi:10.1101/2021.06.17.448874.
Values joined by “and” are separate entries in the source; they are usually repeats but may differ in a detail not shown here. Identical values can stand only once.

Columns and labels:
[1] = target: microtubules polymerised from porcine brain tubulin, taxol-stabilised (porcine) (UniProt P02550); test: co-sedimentation
[2] = target: subtilisin-digested microtubules (lacking E-hooks) (porcine) (UniProt P02550); test: co-sedimentation

Substance	shift to pellet (%) [1]	shift to pellet (%) [2]
KLP-18 C-stalk (C-terminal half of the KLP-18 stalk) (domain or fragment)	52.7% and 50.8%	26.7%
MBP-MESP-1 (meiotic spindle 1) (natural protein)	56.1% and 41.6%	–
